Experimental findings from PMC4081106 (Nucleic Acids Research, 2014) are described below.

This data set deals with the molecule itself. Briefly: SEC + SEC-MALS. (SEC sorts molecules by how far they enter the pores of the column.)

B1: TtcA protein from Escherichia coli, N-terminal hexahistidine-tagged (6his-TtcA) (enzyme, E. coli, UniProt P76055 1-311, looked up)
chain: MQENQQITKKEQYNLNKLQKRLRRNVGEAIADFNMIEEGDRIMVCLSGGKDSYTMLEILRNLQQSAPINFSLVAVNLDQKQPGFPEHVLPEYLEKLGVEYKIVEENTYGIVKEKIPEGKTTCSLCSRLRRGILYRTATELGATKIALGHHRDDILQTLFLNMFYGGKMKGMPPKLMSDDGKHIVIRPLAYCREKDIQRFADAKAFPIIPCNLCGSQPNLQRQVIADMLRDWDKRYPGRIETMFSAMQNVVPSHLCDTNLFDFKGITHGSEVVNGGDLAFDREEIPLQPACWQPEEDENQLDELRLNVVEVK
B1: the stoichiometry N (in general, the number of molecules, sites or subunits per partner or assembly) was 2.
